The assay has as its system mesenchyme free lung explants (lung epithelium in Matrigel). The experiment in a line: mesenchyme-free lung explant culture, growth and branching. The assay is classed as cell-based, mouse. The following applies: both LKB1 wt/wt and LKB1 MG/MG, presence and absence of NMPP1. The protocol: Pancreas and individual lobes of the lungs were dissected from embryos harvested from timed pregnancy setups. Embryonic explants were cultured on 12 mm Transwell® with 0.4 μm polyester membrane insert (Corning, Tewsbury, Mass.) at the air-liquid interface in DME media with 10% fetal calf serum, glutamine and penicillin-streptomycin. For longer-term cultures (>3 days), media was changed daily.
For mesenchyme-free cultures, lungs were dissected and incubated in Collagenase/Dispase (1 mg/ml for each) for 10-15 minutes at room temperature. Epithelial tissue was removed by mechanical dissection, transferred to the Transwell® plates, and covered with 5-10 μl of 1:1 Matrigel:DME. After Matrigel was solidified, 400 μl media (DME/10% FCS/glutamine/pen-strep+200 ng/ml FGF7 (Life Technologies, Carlsbad, Calif.), FGF1 (Life Technologies), or EGF (Life Technologies)) was added to top and bottom wells. Erlotinib (Tarceva®, 1 μM hydrochloride salt; OSI Pharmaceuticals) or DMSO was added as indicated.
Embryonic explants were fixed in 4% paraformaldehyde, permeabilized in PBS with 2% BSA, 0.1% saponin or 0.1% Triton-X100. After washing, tissues were stained with anti-E-cadherin (Santa Cruz). […]
Homozygous germline mutations in LKB1 in mice are early embryonic lethal. […] During this time, the response of these tissues to growth factors was assessed.

The results in this text go back to patent publication US20140314747A1, “PREDICTING RESPONSE TO EGFR INHIBITORS” (Genentech, Inc., priority 2013, published 2014).

B1: FGF-7: fibroblast growth factor FGF-7 (Life Technologies) (protein, UniProt P21781 32-194, looked up)
Fibroblast growth factor 7: CNDMTPEQMATNVNCSSPERHTRSYDYMEGGDIRVRRLFCRTQWYLRIDKRGKVKGTQEMKNNYNIMEIRTVAVGIVAIKGVESEFYLAMNKEGKLYAKKECNEDCNFKELILENHYNTYASAKWTHNGGEMFVALNQKGIPVRGKKTKKEQKTAHFLPMAIT
As for B1, the “growth of mesenchyme free lung cultures” value is on record as “robust growth”.
